Each block holds one binder with its values, some of them ahead of it.
Key:
[1] = biological target: T1, rhB7H1-Fc: fusion protein of the extracellular part of human B7-H1 (PD-L1) and mouse Fc gamma 1, R&D Systems … (human; mouse, UniProt Q9NZQ7 19-238); assay: ELISA, Nanobody dilution series 1-3125 nM on coated B7H1/hFc, rabbit anti-VHH detection, OD 490 nm (Example 11)
T1 construct: extracellular domain; Bought product, made in NS0 cells; also called B7-H1 ectodomain; B7H1/hFc
Description: (§1) In order to check for bispecific binding, the clones selected and screened for PD-L2 binding were tested for binding PD-L1 in an ELISA setup. In short, plates were coated with 100 μl (2 μg/ml) of B7H1/hFc (R&D Systems, Minneapolis, US, Cat #156-B7) in PBS overnight at 4C. After washing, plates were blocked with 4% MPBS for 2 hours on a shaker. A dilution series of Nanobody (1-3125 nM) in 100 μl 2% Marvell/PBS was added and incubated for 1 hour on a shaker. After washing, detection was performed with 100 μl 1:5000 rabbit-anti-VHH in 2% Marvell/PBS for 1 hour on a shaker. After washing, anti-VHH antibody was detected with 100 μl 1:5000 DARPO (in 2% Marvell/PBS for 1 hour on a shaker). PO was detected with 100 μl OPD (add 1:1000 H₂O₂ before use). The reaction was stopped with 50 μl 1 M H₂SO₄ and absorption was read at 490 nm with a platereader.

[2] = biological target: T2, rhPDL2-Fc: fusion protein of the extracellular part of human PD-L2 and mouse Fc gamma 1, R&D Systems Cat … (human; mouse, UniProt Q9BQ51 20-220); assay: ELISA, purified Nanobody titrated on coated PD-L2-Fc (Example 9), OD 490 nm
T2 construct: extracellular domain; Bought product, made in NS0 cells; also called PD-L2 ectodomain; PDL2/hFc
T2 sequence (looked up): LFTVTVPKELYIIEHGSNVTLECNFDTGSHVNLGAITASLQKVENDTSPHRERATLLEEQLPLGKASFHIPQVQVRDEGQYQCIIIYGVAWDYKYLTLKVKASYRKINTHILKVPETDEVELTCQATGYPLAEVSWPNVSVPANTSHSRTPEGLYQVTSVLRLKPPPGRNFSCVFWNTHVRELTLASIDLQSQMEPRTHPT
Description: In short, 5 μg/ml PD-L2 ectodomain (R&D Systems, Minneapolis, US, Cat #1224-PL) was immobilized on maxisorp microtiter plates (Nunc, Wiesbaden, Germany) and free binding sites were blocked using 4% Marvel in PBS. Next, 10 μl of periplasmic extract containing Nanobody of the different clones in 100 μl 2% Marvel PBST were allowed to bind to the immobilized antigen. […] Binding specificity was determined based on OD values compared to controls having received no Nanobody (low control). 32 out of the 96 selected clones were able to bind to PD-L2 with some specificity.
Clones were selected for recloning in an expression vector derived from pUC119 which contained the LacZ promoter, a resistance gene for ampicillin or carbenicillin, a multicloning site and the gen3 leader sequence. In frame with the Nanobody® coding sequence, the vector coded for a C-terminal c-myc tag and a (His)6 tag. After expression, the obtained Nanobodies were purified via the His-tag on Talon beads. Purified Nanobodies were tested in ELISA for binding to PD-L2 as described.

[3] = biological target: T1, rhB7H1-Fc: fusion protein of the …; assay: ELISA, purified Nanobody titrated on coated rhB7H1-Fc (Example 5), OD 490 nm
Description: In short, 5 μg/ml B7-H1 ectodomain (rhB7H1-Fc, R&D Systems, Minneapolis, US, Cat #156-B7) or control Fc was immobilized on maxisorp microtiter plates (Nunc, Wiesbaden, Germany) and free binding sites were blocked using 4% Marvel in. PBS. […] […] Binding specificity was determined based on OD values compared to controls having received no Nanobody (low control). 17 out of the 96 selected clones were able to bind to B7-H1 with some specificity.

[4] = biological target: T2, rhPDL2-Fc: fusion protein of the …; assay: ELISA, Nanobody dilution series 1-3125 nM on coated PDL2/hFc, rabbit anti-VHH detection, OD 490 nm (Example 10)
Description: as §1, with “screened for B7-H1 binding were” for “screened for PD-L2 binding were”, “for binding PD-L2 in an” for “for binding PD-L1 in an”, “μg/ml) of PDL2/hFc (R&D Systems,” for “μg/ml) of B7H1/hFc (R&D Systems,”, “US, Cat #1224-PL) in PBS” for “US, Cat #156-B7) in PBS”, “on a shaker, A dilution” for “on a shaker. A dilution”, “with […] and” for “with 50 μl 1 M H₂SO₄ and”

T1 sequence (Q9NZQ7 19-238 limits assumed): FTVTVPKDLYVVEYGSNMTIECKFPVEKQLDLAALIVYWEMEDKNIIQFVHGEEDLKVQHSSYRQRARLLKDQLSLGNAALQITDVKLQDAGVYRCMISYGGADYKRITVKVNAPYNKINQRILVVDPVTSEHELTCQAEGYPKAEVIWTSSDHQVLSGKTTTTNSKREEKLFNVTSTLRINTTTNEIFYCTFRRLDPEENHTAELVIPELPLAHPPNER

B2: 104D2 (VHH)
VHH: EVQLVESGGGLVQPGGSLRLSCAASGFTLDYYAIGWFRQAPGKEREWASSISSSDGSTYYADSVKGRFTISRDNAKNTVFLQMNSLKPEDTAVYSCAASQAPITIATMMKPFYDYWGQGTQVTVSS
notes: purified via the His-tag; also called anti-B7H1 nanobody 104D2
binding result [3]: binds

B4: 104D7 (VHH)
VHH: EVQLVESGGGLVQAGGSLTISCAASGITFSDSIVSWYRRARGKQREWVAGISNGGTTKYAESVLGRFTISRDNAKNMVYLQMNGLNPEDTAVYLCKVRQYWGQGTQVTVSS
notes: also called anti-B7H1 nanobody 104D7
binding result [3]: binds
EC50 (read off the curve) [4]: ~30 nM

B6: 104B10 (VHH)
VHH: EVQLVESGGGLVQAGGSLRLSCAASGSTFSQYDVGWYRQAPGKQRELVAFSSSGGRTIYPDSVKGRFTFSRDNTKNTVYLQMTSLKPEDTAVYYCKIDWYLNSYWGQGTQVTVSS
notes: also called anti-B7H1 nanobody 104B10
binding result [3]: binds
binding result [4]: binds

B7: 104F5 (VHH)
VHH: EVQLVESGGGLVQPGGSLRLSCAASGFTLDYYAKCWFRQAPGKEREWVSCISSSDGSTYYADSVKGRFTISRDNAKNTVYLQMNSLKPEDTAVYFCAARHGGPLTVEYFFDYWGQGTQVTVSS
notes: purified via the His-tag; also called anti-B7H1 nanobody 104F5
binding result [3]: binds
binding result [4]: no binding (tested: 3125 nM)

Further lines, results first:

binding result [1]: no binding (tested: 3125 nM)
binding result [2]: binds
B1: 103E2 (VHH)
VHH: EVQLVESGGGLVQAGGSLRLSCAASGSTFSNYVSNYAMGWGRQAPGTQRELVASISNGDTTNYADSVKGRFTISRDNAKNTVYLQMNSLKPEDTAVYYCFEHQVAGLTWGQGTQVTVSS
notes: also called anti-PDL2 nanobody 103E2

binding result [4]: no binding (tested: 3125 nM)
B3: 104E12 (VHH)
VHH: EVQLVESGGGLVQPGGSLRLSCAASGFTFDYYAIGWFRQAPGKAREGVSCISGGDNSTYYADSVKGRFTISRDNAKNTVYLQMNSLKPEDTAVYYCATGGWKYCSGYDPEYIYWGQGTQVTVSS
notes: also called anti-B7H1 nanobody 104E12

binding result [1]: no binding (tested: 3125 nM)
binding result [2]: binds
B5: 103D3 (VHH)
VHH: EVQLVESGGGLVEPGGSLRLSCVASGFTFSSYDMSWVRQAPGKGLEWVSTINSGGGITYRGSVKGRFTISRDNAKNTLYLQMNSLKPEDTAVYYCENGGSSYRRGQGTQVTVSS
notes: also called anti-PDL2 nanobody 103D3

binding result [1]: binds
binding result [2]: binds
B8: 103F10 (VHH)
VHH: EVQLVESGGGLVQAGGSLRLSCAASGRTFSSGTMGWFRRAPGKEREFVASIPWSGGRTYYADSVKDRFTISRDNAQNTVFLQMNSLKPEDTAVYYCAFKERSTGWDFASWGQGIQVTVSS
notes: also called anti-PDL2 nanobody 103F10

From patent publication US20110129458A1 (Ablynx, published 2011)
